Test results taken from the supplement of paper PMC9170038.

Test system: MS2 coat protein
Test: apparent KD of MS2 coat protein; designed switch direction (-1 OFF switch, 1 ON switch): 1; higher = weaker reporter binding
In short: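 Normalised cluster fluorescence was curve-fitted, and each design's median over clusters is its apparent KD. Before this, SNAP-549-labelled MS2 coat protein was titrated from 0.7 or 1.5 nM, doubling to 3 µM, over RNA switches transcribed on Illumina chips by stalled E. coli RNA polymerase. Titrations had no input, 200 uM small-molecule ligand, or an oligonucleotide input, and steps lasted 0.8–1.5 h (lowest) to 10–20 min (highest).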

[1] = Eterna round: R95, input ligand: FMN 200 uM
[2] = Eterna round: R95, input ligand: microRNA oligo, concentration not stated
[3] = Eterna round: R95, input ligand: none
[4] = input ligand: microRNA oligo, concentration not stated

| Sequence | apparent KD of MS2 coat protein [1] | apparent KD of MS2 coat protein [2] | apparent KD of MS2 coat protein [3] | apparent KD of MS2 coat protein [4] | apparent KD of MS2 coat protein (input ligand: FMN 200 uM) | apparent KD of MS2 coat protein (input ligand: none) |
| --- | --- | --- | --- | --- | --- | --- |
| AGUCCAGCCUGAGCUGGACAAAAGCAUGUACAUGAGGAUCACCCAUGUCAUGUACAAGUUUUUUGCUCGUUUUAAUA [Zipper 49 - 18] (puzzle: Sensor for hsa-mir-208a) | 48.9 nM | 12.2 nM | 52 nM | – | – | – |
| UUCCUACAUGAGGAUCACCCAUGUGACGCCUCGAUAGGAUAUGCGUGUGCCUUGGCGCAUGCAGAAGGAUUGUAGC [JL Aveso mod 8] (puzzle: Same State 1) | 224 nM | 27.6 nM | 21.4 nM | – | – | – |
| UGCUUCGUGUAAGGAUAUGCUGCCGUUUCGGCUGCAGAAGGUACUAUAAUACAUGAGGAUCACCCAUGUCUCUCGCUUUGCGGG [salish99_SSng1_r04_305] (Eterna round: R96, puzzle: Same State NG 1) | – | – | – | 42.1 nM | – | – |
| AUAAAACAUGAGGAUCACCCAUGUCAACAAAGUCGAGGAUAUGGGCAAAGAAAAUAAUAACCAGAAGGCGAAUAAU [salish99_ss1_r3_054] (puzzle: Same State 1) | 42.6 nM | 389 nM | 445 nM | – | – | – |
| UUGAUUAACGUAGGAUAUCGACCUACAUGAGGAUCACCCAUGUCUUUGAAUAGAUUUUUUUGUUACGAGAAGGACGUUAUGUAU [JR_SSNG2_Sub066] (Eterna round: R96, puzzle: Same State NG 2) | – | – | – | 49.6 nM | 40.7 nM | 89.4 nM |
| CUUAUUAAUGCAGGAUAUGAUUAACAUGAGGAUCACCCAUGUGGUGUUGUGAGUAAGGAGAGUGAUCAGAAGGGCAUUUUUUUU [JMF's solution 41] (Eterna round: R96, puzzle: Same State NG 2) | – | – | – | 410 nM | 711 nM | 656 nM |
| CUCAACAACACAGGAUAUCCAGGGAAAAGACCUGGAGAAGGGUGACCAACAUGAGGAUCACCCAUGUGACAGCCAGGCUGUCUG [Esisiszaon] (Eterna round: R96, puzzle: Same State NG 1) | – | – | – | 84.4 nM | 164 nM | 47.7 nM |
| ACAUGAGACUGAGGAUAUGUUGUACCUACAUGUGACAUGAGGAUCACCCAUGUGGUAAGUAUGAUACAGAAGGCAGAGAUAUGU [Equivalance 63 - Jieux - Same State NG 2] (Eterna round: R96, puzzle: Same State NG 2) | – | – | – | 14.5 nM | 14.2 nM | 22.1 nM |
| AUUGCUUACGCAGGAUAUGAUGCGAAAAUUGCGUCAGAAGGGUGAAGUGACUCGUAGCAACAAGACAUGAGGAUCACCCAUGUC [SameState NG1 #93] (Eterna round: R96, puzzle: Same State NG 1) | – | – | – | 26.4 nM | 28.2 nM | 42.1 nM |
| AGUCCAGCCUGAGCUGGACAAAUGCAAGUACAUGAGGAUCACCCAUGUUCAUGUACAAGCUUUUUGCUCGUCUUAAA [JL zipper 59] (Eterna round: R96, puzzle: Sensor for hsa-mir-208a) | – | – | – | 21.3 nM | 853 nM | 931 nM |
| GAGGGCGAAAGCGACAUGAGGAUCACCCAUGUCCUCGGAGGGCAGGAUAUCCGGCAAAAGCCGAAGGAGAAGGGUCGAAAAGAA [AK SSNG3-V2-38.1] (Eterna round: R96, puzzle: Same State NG 3) | – | – | – | 26 nM | 66.4 nM | 41.1 nM |
| GAGUGGCAGUUAGGAUAUACAGUGAUAAUGAUAGUAGAAGGAACAGACAUGAGGAUCACCCAUGUAGGACUAAUCCAGAGAGAG [Parity 33 - Jieux - Same State NG 1] (Eterna round: R96, puzzle: Same State NG 1) | – | – | – | 29.8 nM | 30.8 nM | 34.9 nM |
| UGAACCUUCACAGGAUAUCAUGCGAAAAUUGCGUGAGAAGGGUGAAUACGGUGUUCAUAGUUGCACAUGAGGAUCACCCAUGUA [SameState NG1 #54] (Eterna round: R96, puzzle: Same State NG 1) | – | – | – | 69.2 nM | 141 nM | 316 nM |
| GCAUCACAUGAGGAUCACCCAUGUCUUCGGAGUCGAGGAUAUGGUCACUGUAAACAGUGGCCAGAAGGCGAGAUGC [SS1 - Son of Teenbexe] (puzzle: Same State 1) | – | 41.4 nM | – | – | – | – |
| GGGAGACAUGAGGAUCACCCAUGUGAGAAGAGGCGAGGAUAUCGAAAAAAAAAAAAAAAACGAGAAGGCGCGAGAU [salish99-SS1-004] (Eterna round: R96, puzzle: Same State 1) | – | – | – | 133 nM | 43.5 nM | 115 nM |
| CACAAUCUAUCUGAGGAUAUCAUGAAAAAAACAUGAGGAUCACCCAUGUGCAGGAAAACUGCAUAUGAGAAGGCAGAUAGAUUGU [salish99_SS2_r3_015] (puzzle: Same State 2) | 28.3 nM | 720 nM | 913 nM | – | – | – |

| Sequence | apparent KD of MS2 coat protein [1] | apparent KD of MS2 coat protein [2] | apparent KD of MS2 coat protein [3] | apparent KD of MS2 coat protein [4] | apparent KD of MS2 coat protein (input ligand: FMN 200 uM) | apparent KD of MS2 coat protein (input ligand: none) |
| --- | --- | --- | --- | --- | --- | --- |
| GGAGCCGGCCUAGGAUAUUUCAUAAUUAAACAUGAGGAUCACCCAUGUAGGCCAGAAGGCCUUGGGAAGAAGGAGGUCGGCUCC [Loop Effect - U26,U27] (Eterna round: R96, puzzle: Same State NG 2) | – | – | – | 39 nM | 12.5 nM | 82.3 nM |
| AGUCCAGCCUGAGCUGGACAAAAGCAUGUACAUGAGGAUCACCCAUGUUCAUGUACAAGCUUUUUGCUCGUCUUACA [salish99_208a_r3_076] (puzzle: Sensor for hsa-mir-208a) | 467 nM | 14.4 nM | 483 nM | – | – | – |
| UGGUAACAUGAGGAUCACCCAUGUCAAAUGAAUCGAGGAUAUGGGAACUAACAACACAAACUAGAAGGCGAACUUG [Altered State 1-9 - Jieux - Same State 1] (puzzle: Same State 1) | 32.6 nM | 39.6 nM | 91.5 nM | – | – | – |
| GGAAUAUGAUGUUACAUGAGGAUCACCCAUGUAGUGAUAACUAAGGAUAUUUGAAAGGGAGGAGAAGAGAAGGUAGGAUCAUAA [AK SSNG3-V2-11.1] (Eterna round: R96, puzzle: Same State NG 3) | – | – | – | 47.6 nM | 60.7 nM | 63.7 nM |
| UAGUUACUAUCUCAGGAUAUCAUGUCAAAGACAUGAGGAUCACCCAUGUACCAGGAAACUGGUUAUGAGAAGGGAGAUAGUAACA [Mat - Same State 2 - Mod - D56] (puzzle: Same State 2) | 78.7 nM | 34.2 nM | 38.6 nM | – | – | – |
| CUUUAUCACUAUACAUGAGGAUCACCCAUGUUAUCAUCAUGAGAGGAUAUCGUAUUUGGAUUUUUCGAGAAGGCUCUAUUGUAU [JR_SSNG3_Sub077] (Eterna round: R96, puzzle: Same State NG 3) | – | – | – | 158 nM | – | – |
| UUGUUUCGUCAUUAACAUGAGGAUCACCCAUGUAUCGACUCAAAGGAUAUAUAUGCUUGUUUGCAAUAGAAGGUUGAUUGUUGU [JR_SSNG3_Sub092] (Eterna round: R96, puzzle: Same State NG 3) | – | – | – | 28.1 nM | – | – |
| UCUUGGUUUUUGCUCGUUUUUUGUGUUGAACAUGAGGAUCACCCAUGUAUUGUACAGUCCAGUUUGAUAAUGGUCCG [JMF 56] (puzzle: Sensor for hsa-mir-208a) | 39 nM | 33.3 nM | 44.3 nM | – | – | – |
| CGGUGAGAGACAGGAUAUCGAGCCUAACGAGGCCGAGAAGGGUCGCCCGAAGCGACCGACAUGAGGAUCACCCAUGUAGAAAGA [Eternabot solution 21] (Eterna round: R96, puzzle: Same State NG 1) | – | – | – | 30 nM | 34.2 nM | 40.4 nM |
| GGCAAUCGCAUUCGAUUGCCUGAGCAUGUACAUGAGGAUCACCCAUGUCAUGUACAGGCUUUUUGCUCGUACUUAUA (puzzle: Sensor for hsa-mir-208a) | 91.6 nM | 14.9 nM | 135 nM | – | – | – |
| UGAAUAGUUACAGGAUAUGAGCCGUAAAUUGGGUCAGAAGGGUGGGUGUUCUGCGCUGUGUGUUACAUGAGGAUCACCCAUGUU [SameState NG1 #31] (Eterna round: R96, puzzle: Same State NG 1) | – | – | – | 34.9 nM | 162 nM | 63.4 nM |
| UGACACACGGCAGGAUAUGCUUAGCAAAGCUAAGCAGAAGGGCCUCAUGUCGUGGAAAUGUGACAUGAGGAUCACCCAUGUCGC [Omei SS(NG)1 Cv5] (Eterna round: R96, puzzle: Same State NG 1) | – | – | – | 17.8 nM | 27.3 nM | 29.9 nM |
| GAUAGACAUGAGGAUCACCCAUGUGACAAAACCACAGGAUAUCAUGCAGGCGUACCUGCAUGAGAAGGGUGAGACU [Ceriinaqu] (puzzle: Same State 1) | 29.7 nM | 35.3 nM | 22 nM | – | – | – |
| UUGAAGAAUUAAGGAUAUUGAGUACAUAUGUUUAACAUGAGGAUCACCCAUGUGGGUUGCGGUAUCGAGAAGGUAAAAUACUAG [Mat - same State NG 2 - JL mod - D73] (Eterna round: R96, puzzle: Same State NG 2) | – | – | – | 126 nM | 156 nM | 87.9 nM |
| GACAAUCUAUCUCAGGAUAUCAUGUCAAAGACAUGAGGAUCACCCAUGUACCAGGAAACUGGUUAUGAGAAGGGAGAUAGAUUGA [Mat - Same State 2 - Mod - D26] (puzzle: Same State 2) | 264 nM | 142 nM | 427 nM | – | – | – |
